Experimental data from patent US20210246166A1 (Bayer, published 2021).
Numbered stars: 1 amine (or outer) side, 2 acyl side, 3 side chain; on linkers, the order of the positions; unused ones are H or OH. Bridge positions count the residues as written; N and C are the ends. Square brackets hold non-standard residues; d marks the D form. Ends that are not written are not given here. NH(CH2CH2O)4CH2CO = O=C(COCCOCCOCCOCCN[*:1])[*:2]; Oic = O=C(O)[C@@H]1C[C@@H]2CCCC[C@@H]2N1; PEG8 = NCCOCCOCCOCCOCCOCCOCCOCCOCCC(=O)O; tBuAla = CC(C)(C)C[C@H](N)C(=O)O; Cit = NC(=O)NCCC[C@H](N)C(=O)O; Pen = CC(C)(S)[C@H](N)C(=O)O; NMeC = CN[C@@H](CS)C(=O)O; PEG3 = NCCOCCOCCOCCC(=O)O; Orn = NCCC[C@H](N)C(=O)O; Aze = O=C(O)[C@@H]1CCN1; Nva = CCC[C@H](N)C(=O)O; PEG2 = NCCOCCOCCC(=O)O; Sar = CNCC(=O)O

T1: recombinant human MASP1 active protease (amino acids 297-699, C-terminal His Tag) (human, UniProt P48740 297-699)
T1 sequence: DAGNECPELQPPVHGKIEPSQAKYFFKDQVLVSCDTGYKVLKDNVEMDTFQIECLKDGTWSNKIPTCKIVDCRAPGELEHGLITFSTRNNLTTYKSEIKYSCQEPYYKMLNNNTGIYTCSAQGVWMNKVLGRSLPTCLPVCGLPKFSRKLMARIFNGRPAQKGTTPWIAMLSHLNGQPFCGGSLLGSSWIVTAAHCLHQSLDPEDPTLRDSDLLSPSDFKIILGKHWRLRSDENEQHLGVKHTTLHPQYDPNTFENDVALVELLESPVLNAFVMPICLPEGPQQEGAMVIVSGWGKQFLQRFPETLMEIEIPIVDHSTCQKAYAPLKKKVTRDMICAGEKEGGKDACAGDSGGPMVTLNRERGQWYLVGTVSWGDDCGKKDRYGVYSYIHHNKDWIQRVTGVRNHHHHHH

B1: AIC+SRSLP-(Oic)-I-(Pen)+IP-NH2 (peptide)
peptide: AICSRSLP[Oic]I[Pen]IP-NH2
modifications: disulfide 3-11; N-terminus assumed
SMILES: CC[C@H](C)[C@H](NC(=O)[C@H](C)N)C(=O)N[C@H]1CSSC(C)(C)[C@@H](C(=O)N[C@H](C(=O)N2CCC[C@H]2C(N)=O)[C@@H](C)CC)NC(=O)[C@H]([C@@H](C)CC)NC(=O)[C@@H]2C[C@@H]3CCCC[C@@H]3N2C(=O)[C@@H]2CCCN2C(=O)[C@H](CC(C)C)NC(=O)[C@H](CO)NC(=O)[C@H](CCCNC(=N)N)NC(=O)[C@H](CO)NC1=O
B2: (Orn)-IC+SRS-((tBu)A)-PPI-((N-Me)C)+IPD-NH2 (peptide)
peptide: [Orn]ICSRS[tBuAla]PPI[NMeC]IPD-NH2
modifications: disulfide 3-11; N-terminus assumed
SMILES: CC[C@H](C)[C@H](NC(=O)[C@@H](N)CCCN)C(=O)N[C@H]1CSSC[C@@H](C(=O)N[C@H](C(=O)N2CCC[C@H]2C(=O)N[C@@H](CC(=O)O)C(N)=O)[C@@H](C)CC)N(C)C(=O)[C@H]([C@@H](C)CC)NC(=O)[C@@H]2CCCN2C(=O)[C@@H]2CCCN2C(=O)[C@H](CC(C)(C)C)NC(=O)[C@H](CO)NC(=O)[C@H](CCCNC(=N)N)NC(=O)[C@H](CO)NC1=O
B3: WIC+SRS-((tBu)A)-PPI-(Pen)+IPD-NH2 (peptide)
peptide: WICSRS[tBuAla]PPI[Pen]IPD-NH2
modifications: disulfide 3-11; N-terminus assumed
SMILES: CC[C@H](C)[C@H](NC(=O)[C@@H](N)Cc1c[nH]c2ccccc12)C(=O)N[C@H]1CSSC(C)(C)[C@@H](C(=O)N[C@H](C(=O)N2CCC[C@H]2C(=O)N[C@@H](CC(=O)O)C(N)=O)[C@@H](C)CC)NC(=O)[C@H]([C@@H](C)CC)NC(=O)[C@@H]2CCCN2C(=O)[C@@H]2CCCN2C(=O)[C@H](CC(C)(C)C)NC(=O)[C@H](CO)NC(=O)[C@H](CCCNC(=N)N)NC(=O)[C@H](CO)NC1=O
B4: KIC+SRS-((tBu)A)-PPI-((N-Me)C)+I-NH2 (peptide)
peptide: KICSRS[tBuAla]PPI[NMeC]I-NH2
modifications: disulfide 3-11; N-terminus assumed
SMILES: CC[C@H](C)[C@H](NC(=O)[C@@H]1CSSC[C@H](NC(=O)[C@@H](NC(=O)[C@@H](N)CCCCN)[C@@H](C)CC)C(=O)N[C@@H](CO)C(=O)N[C@@H](CCCNC(=N)N)C(=O)N[C@@H](CO)C(=O)N[C@@H](CC(C)(C)C)C(=O)N2CCC[C@H]2C(=O)N2CCC[C@H]2C(=O)N[C@@H]([C@@H](C)CC)C(=O)N1C)C(N)=O
B5: ((N-Me)G)-IC+SRSLP-(Oic)-I-(Pen)+IP-(PEG1(10 atoms))-NH2 (peptide)
peptide: [Sar]ICSRSLP[Oic]I[Pen]IP[PEG2]-NH2
modifications: disulfide 3-11; N-terminus assumed
SMILES: CC[C@H](C)[C@H](NC(=O)CNC)C(=O)N[C@H]1CSSC(C)(C)[C@@H](C(=O)N[C@H](C(=O)N2CCC[C@H]2C(=O)NCCOCCOCCC(N)=O)[C@@H](C)CC)NC(=O)[C@H]([C@@H](C)CC)NC(=O)[C@@H]2C[C@@H]3CCCC[C@@H]3N2C(=O)[C@@H]2CCCN2C(=O)[C@H](CC(C)C)NC(=O)[C@H](CO)NC(=O)[C@H](CCCNC(=N)N)NC(=O)[C@H](CO)NC1=O
B6: ((N-Me)G)-IC+SRS-((tBu)A)-PPI-(Pen)+IP-(PEG4-CH2CO2H (15 atoms))-NH2 (peptide)
peptide: [Sar]ICSRS[tBuAla]PPI[Pen]IP[NH(CH2CH2O)4CH2CO]-NH2
modifications: disulfide 3-11; N-terminus assumed
SMILES: CC[C@H](C)[C@H](NC(=O)CNC)C(=O)N[C@H]1CSSC(C)(C)[C@@H](C(=O)N[C@H](C(=O)N2CCC[C@H]2C(=O)NCCOCCOCCOCCOCC(N)=O)[C@@H](C)CC)NC(=O)[C@H]([C@@H](C)CC)NC(=O)[C@@H]2CCCN2C(=O)[C@@H]2CCCN2C(=O)[C@H](CC(C)(C)C)NC(=O)[C@H](CO)NC(=O)[C@H](CCCNC(=N)N)NC(=O)[C@H](CO)NC1=O
B7: ((N-Me)G)-IC+SRS-((tBu)A)-PPI-(Pen)+IP-(PEG2(13 atoms))-NH2 (peptide)
peptide: [Sar]ICSRS[tBuAla]PPI[Pen]IP[PEG3]-NH2
modifications: disulfide 3-11; N-terminus assumed
SMILES: CC[C@H](C)[C@H](NC(=O)CNC)C(=O)N[C@H]1CSSC(C)(C)[C@@H](C(=O)N[C@H](C(=O)N2CCC[C@H]2C(=O)NCCOCCOCCOCCC(N)=O)[C@@H](C)CC)NC(=O)[C@H]([C@@H](C)CC)NC(=O)[C@@H]2CCCN2C(=O)[C@@H]2CCCN2C(=O)[C@H](CC(C)(C)C)NC(=O)[C@H](CO)NC(=O)[C@H](CCCNC(=N)N)NC(=O)[C@H](CO)NC1=O
B8: ((N-Me)G)-IC+SRS-((tBu)A)-PPI-(Pen)+IP-(PEG8(28 atoms))-NH2 (peptide)
peptide: [Sar]ICSRS[tBuAla]PPI[Pen]IP-{PEG8-NH2}
modifications: disulfide 3-11
B9: (Orn)-IC+SRS-((tBu)A)-PPI-((N-Me)C)+IPD-NH2 (HCl salt) (peptide)
peptide: [Orn]ICSRS[tBuAla]PPI[NMeC]IPD-NH2
modifications: disulfide 3-11; also: HCl salt
B10: (Azetidine-2-carboxylic acid)-IC+SRS-((tBu)A)-PPI-(Pen)+IPD-NH2 (peptide)
peptide: [Aze]ICSRS[tBuAla]PPI[Pen]IPD-NH2
modifications: disulfide 3-11
B11: (Cit)-IC+SRS-((tBu)A)-PPI-(Pen)+IPD-OH (peptide)
peptide: [Cit]ICSRS[tBuAla]PPI[Pen]IPD-OH
modifications: disulfide 3-11; N-terminus assumed
SMILES: CC[C@H](C)[C@H](NC(=O)[C@@H](N)CCCNC(N)=O)C(=O)N[C@H]1CSSC(C)(C)[C@@H](C(=O)N[C@H](C(=O)N2CCC[C@H]2C(=O)N[C@@H](CC(=O)O)C(=O)O)[C@@H](C)CC)NC(=O)[C@H]([C@@H](C)CC)NC(=O)[C@@H]2CCCN2C(=O)[C@@H]2CCCN2C(=O)[C@H](CC(C)(C)C)NC(=O)[C@H](CO)NC(=O)[C@H](CCCNC(=N)N)NC(=O)[C@H](CO)NC1=O
B12: ((N-Me)G)-IC+SRSLP-(Oic)-I-(Pen)+IP-(PEG5-CH2CO2H (18 atoms))-NH2 (peptide)
peptide: [Sar]ICSRSLP[Oic]I[Pen]IP[PEG5‑CH2CO2H (18 atoms)]-NH2
modifications: disulfide 3-11
B13: (Nva)-IC+SRS-((tBu)A)-PPI-(Pen)+IPD-NH2 (peptide)
peptide: [Nva]ICSRS[tBuAla]PPI[Pen]IPD-NH2
modifications: disulfide 3-11; N-terminus assumed
SMILES: CCC[C@H](N)C(=O)N[C@H](C(=O)N[C@H]1CSSC(C)(C)[C@@H](C(=O)N[C@H](C(=O)N2CCC[C@H]2C(=O)N[C@@H](CC(=O)O)C(N)=O)[C@@H](C)CC)NC(=O)[C@H]([C@@H](C)CC)NC(=O)[C@@H]2CCCN2C(=O)[C@@H]2CCCN2C(=O)[C@H](CC(C)(C)C)NC(=O)[C@H](CO)NC(=O)[C@H](CCCNC(=N)N)NC(=O)[C@H](CO)NC1=O)[C@@H](C)CC

The binders below were run against T1, recombinant human MASP1 active protease … (assay: cell-based or functional assay).

Binder	human MASP1 IC50
B1	2.2 nM
B2	2.4 nM
B3	2.4 nM
B4	2.4 nM
B5	2.3 nM
B6	2.2 nM
B7	2.2 nM
B8	2.2 nM
B9	2.4 nM
B10	2.4 nM
B11	2.2 nM
B12	2.4 nM
B13	2.2 nM

These binders were tested against recombinant human MASP2 active protease (amino acids 297-686, C-terminal His Tag) (human, UniProt O00187 297-686) (assay: cell-based or functional assay).
recombinant human MASP2 active protease (amino acids 297-686, C-terminal His Tag), sequence (O00187 other isoform, or with tags, fused parts or gaps limits assumed): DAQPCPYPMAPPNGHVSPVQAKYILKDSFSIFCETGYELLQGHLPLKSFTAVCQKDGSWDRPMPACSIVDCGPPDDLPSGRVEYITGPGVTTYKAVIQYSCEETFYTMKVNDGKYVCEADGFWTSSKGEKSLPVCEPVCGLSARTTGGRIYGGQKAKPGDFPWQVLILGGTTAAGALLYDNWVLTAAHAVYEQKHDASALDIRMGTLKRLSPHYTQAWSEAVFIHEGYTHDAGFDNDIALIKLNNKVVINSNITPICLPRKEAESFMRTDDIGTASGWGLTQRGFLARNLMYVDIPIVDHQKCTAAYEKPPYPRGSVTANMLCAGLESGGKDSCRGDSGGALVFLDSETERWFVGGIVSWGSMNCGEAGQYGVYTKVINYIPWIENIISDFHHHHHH

Binder	human MASP2 IC50
B1	63 nM
B2	150 nM
B3	64 nM
B4	110 nM
B5	87 nM
B6	30 nM
B7	42 nM
B8	52 nM
B9	170 nM
B10	68 nM
B11	65 nM
B12	110 nM
B13	51 nM
